Measurements taken from publication PMC8242032, “Non-canonical function of DGCR8 in DNA double-strand break repair signaling and tumor radioresistance” (Nature Communications, 2021).

Molecular target: T1, MBP-DGCR8 (human, UniProt Q8WYQ5 1-773)
T1 construct: DGCR8, human, full-length, in an MBP-tagged destination vector; also called purified DGCR8; source: bacterially purified (eluted with maltose)
T1 sequence (looked up): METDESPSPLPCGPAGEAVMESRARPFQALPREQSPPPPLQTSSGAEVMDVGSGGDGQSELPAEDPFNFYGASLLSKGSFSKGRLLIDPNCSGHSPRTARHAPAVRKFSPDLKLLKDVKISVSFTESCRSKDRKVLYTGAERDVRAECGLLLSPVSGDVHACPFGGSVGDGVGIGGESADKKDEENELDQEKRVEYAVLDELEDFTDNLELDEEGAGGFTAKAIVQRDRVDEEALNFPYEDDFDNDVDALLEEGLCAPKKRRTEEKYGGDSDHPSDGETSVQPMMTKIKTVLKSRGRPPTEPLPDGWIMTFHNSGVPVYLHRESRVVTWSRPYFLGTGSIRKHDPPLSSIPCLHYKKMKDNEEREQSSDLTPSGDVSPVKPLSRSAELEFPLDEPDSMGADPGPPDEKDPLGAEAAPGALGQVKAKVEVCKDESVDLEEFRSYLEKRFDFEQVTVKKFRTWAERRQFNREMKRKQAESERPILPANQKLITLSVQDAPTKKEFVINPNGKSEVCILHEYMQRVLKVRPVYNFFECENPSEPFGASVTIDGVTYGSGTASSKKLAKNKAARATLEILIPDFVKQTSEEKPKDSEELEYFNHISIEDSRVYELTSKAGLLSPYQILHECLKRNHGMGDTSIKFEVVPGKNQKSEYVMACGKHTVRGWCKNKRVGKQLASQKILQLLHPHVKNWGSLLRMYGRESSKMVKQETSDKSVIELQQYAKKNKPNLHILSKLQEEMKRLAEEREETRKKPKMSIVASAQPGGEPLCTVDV
Test: pull-down; SFB-USP51 (or SFB-GFP) purified from transfected HEK293T cells, retained on S-protein beads and incubated with purified MBP-DGCR8, 4 °C overnight; washed with NETN buffer
Details: both partners purified

binding result: binds
B1: SFB-USP51 (enzyme, human, UniProt Q70EK9 1-711, looked up)
chain: MAQVRETSLPSGSGVRWISGGGGGASPEEAVEKAGKMEEAAAGATKASSRREAEEMKLEPLQEREPAPEENLTWSSSGGDEKVLPSIPLRCHSSSSPVCPRRKPRPRPQPRARSRSQPGLSAPPPPPARPPPPPPPPPPPAPRPRAWRGSRRRSRPGSRPQTRRSCSGDLDGSGDPGGLGDWLLEVEFGQGPTGCSHVESFKVGKNWQKNLRLIYQRFVWSGTPETRKRKAKSCICHVCSTHMNRLHSCLSCVFFGCFTEKHIHKHAETKQHHLAVDLYHGVIYCFMCKDYVYDKDIEQIAKETKEKILRLLTSTSTDVSHQQFMTSGFEDKQSTCETKEQEPKLVKPKKKRRKKSVYTVGLRGLINLGNTCFMNCIVQALTHIPLLKDFFLSDKHKCIMTSPSLCLVCEMSSLFHAMYSGSRTPHIPYKLLHLIWIHAEHLAGYRQQDAHEFLIAILDVLHRHSKDDSGGQEANNPNCCNCIIDQIFTGGLQSDVTCQACHSVSTTIDPCWDISLDLPGSCATFDSQNPERADSTVSRDDHIPGIPSLTDCLQWFTRPEHLGSSAKIKCNSCQSYQESTKQLTMKKLPIVACFHLKRFEHVGKQRRKINTFISFPLELDMTPFLASTKESRMKEGQPPTDCVPNENKYSLFAVINHHGTLESGHYTSFIRQQKDQWFSCDDAIITKATIEDLLYSEGYLLFYHKQGLEKD
notes: USP51, human DUB ORF in the pBabe-SFB vector; also called SFB-tagged USP51; source: HEK293T, transfected, in lysate; purified from transfected HEK293T cells
